# Reference: patent publication US9994881B2, “Functionalized carboxylic acids and alcohols by reverse fatty acid oxidation in engineered microbes” (William Marsh Rice University, priority 2011, dated 2018)
# Marks after values point to notes of the source that are not given here.
# B1: egTER: NAD(P)H-dependent trans-2-enoyl-CoA reductase from Euglena gracilis (protein, UniProt Q5EU90 69-539, looked up)
# Trans-2-enoyl-CoA reductase: VPQMAEGFSGEATSAWAAAGPQWAAPLVAAASSALALWWWAARRSVRRPLAALAELPTAVTHLAPPMAMFTTTAKVIQPKIRGFICTTTHPIGCEKRVQEEIAYARAHPPTSPGPKRVLVIGCSTGYGLSTRITAAFGYQAATLGVFLAGPPTKGRPAAAGWYNTVAFEKAALEAGLYARSLNGDAFDSTTKARTVEAIKRDLGTVDLVVYSIAAPKRTDPATGVLHKACLKPIGATYTNRTVNTDKAEVTDVSIEPASPEEIADTVKVMGGEDWELWIQALSEAGVLAEGAKTVAYSYIGPEMTWPVYWSGTIGEAKKDVEKAAKRITQQYGCPAYPVVAKALVTQASSAIPVVPLYICLLYRVMKEKGTHEGCIEQMVRLLTTKLYPENGAPIVDEAGRVRVDDWEMAEDVQQAVKDLWSQVSTANLKDISDFAGYQTEFLRLFGFGIDGVDYDQPVDVEADLPSAAQQ
# B2: FadB: E. coli hydroxyacyl-CoA dehydrogenase and enoyl-CoA hydratase, part of fatty acid oxidation complex (protein, UniProt P21177 1-729, looked up)
# Fatty acid oxidation complex …: MLYKGDTLYLDWLEDGIAELVFDAPGSVNKLDTATVASLGEAIGVLEQQSDLKGLLLRSNKAAFIVGADITEFLSLFLVPEEQLSQWLHFANSVFNRLEDLPVPTIAAVNGYALGGGCECVLATDYRLATPDLRIGLPETKLGIMPGFGGSVRMPRMLGADSALEIIAAGKDVGADQALKIGLVDGVVKAEKLVEGAKAVLRQAINGDLDWKAKRQPKLEPLKLSKIEATMSFTIAKGMVAQTAGKHYPAPITAVKTIEAAARFGREEALNLENKSFVPLAHTNEARALVGIFLNDQYVKGKAKKLTKDVETPKQAAVLGAGIMGGGIAYQSAWKGVPVVMKDINDKSLTLGMTEAAKLLNKQLERGKIDGLKLAGVISTIHPTLDYAGFDRVDIVVEAVVENPKVKKAVLAETEQKVRQDTVLASNTSTIPISELANALERPENFCGMHFFNPVHRMPLVEIIRGEKSSDETIAKVVAWASKMGKTPIVVNDCPGFFVNRVLFPYFAGFSQLLRDGADFRKIDKVMEKQFGWPMGPAYLLDVVGIDTAHHAQAVMAAGFPQRMQKDYRDAIDALFDANRFGQKNGLGFWRYKEDSKGKPKKEEDAAVEDLLAEVSQPKRDFSEEEIIARMMIPMVNEVVRCLEEGIIATPAEADMALVYGLGFPPFHGGAFRWLDTLGSAKYLDMAQQYQHLGPLYEVPEGLRNKARHNEPYYPPVEPARPVGDLKTA
# B3: FadA: E. coli 3-ketoacyl-CoA thiolase (thiolase I), a component of fatty acid oxidation complex FadAB (protein, UniProt P21151 1-387, looked up)
# 3-ketoacyl-CoA thiolase FadA: MEQVVIVDAIRTPMGRSKGGAFRNVRAEDLSAHLMRSLLARNPALEAAALDDIYWGCVQQTLEQGFNIARNAALLAEVPHSVPAVTVNRLCGSSMQALHDAARMIMTGDAQACLVGGVEHMGHVPMSHGVDFHPGLSRNVAKAAGMMGLTAEMLARMHGISREMQDAFAARSHARAWAATQSAAFKNEIIPTGGHDADGVLKQFNYDEVIRPETTVEALATLRPAFDPVNGMVTAGTSSALSDGAAAMLVMSESRAHELGLKPRARVRSMAVVGCDPSIMGYGPVPASKLALKKAGLSASDIGVFEMNEAFAAQILPCIKDLGLIEQIDEKINLNGGAIALGHPLGCSGARISTTLLNLMERKDVQFGLATMCIGLGQGIATVFERV
# B4: paaH: E. coli 3-hydroxyadipyl-CoA dehydrogenase that participates in the degradation of phenylacetate (protein, UniProt P76083 1-475, looked up)
# 3-hydroxyadipyl-CoA …: MMINVQTVAVIGSGTMGAGIAEVAASHGHQVLLYDISAEALTRAIDGIHARLNSRVTRGKLTAETCERTLKRLIPVTDIHALAAADLVIEAASERLEVKKALFAQLAEVCPPQTLLTTNTSSISITAIAAEIKNPERVAGLHFFNPAPVMKLVEVVSGLATAAEVVEQLCELTLSWGKQPVRCHSTPGFIVNRVARPYYSEAWRALEEQVAAPEVIDAALRDGAGFPMGPLELTDLIGQDVNFAVTCSVFNAFWQERRFLPSLVQQELVIGGRLGKKSGLGVYDWRAEREAVVGLEAVSDSFSPMKVEKKSDGVTEIDDVLLIETQGETAQALAIRLARPVVVIDKMAGKVVTIAAAAVNPDSATRKAIYYLQQQGKTVLQIADYPGMLIWRTVAMIINEALDALQKGVASEQDIDTAMRLGVNYPYGPLAWGAQLGWQRILRLLENLQHHYGEERYRPCSLLRQRALLESGYES
# Columns and labels:
# Type in all cases: biochemical
# [1] = crotonyl-CoA reductase activity (loss of NADH absorbance); conditions: substrate Crotonyl-CoA; supernatant fraction; expressed from pTrcHis2A
# Description: (§1) Cultures for enzymatic assays were grown overnight in 100 mL of LB media at 37° C. in 250 mL baffled flasks (Wheaton Industries, Inc., Millville, N.J.) in E. coli BL21 (DE3) cells induced with either 1 mM IPTG (pCA24N, pTrcHis2A) or 1 mM Arabinose (pUCBB-pBAD) at an OD600˜0.6, or expressed constitutively (pUCBB-ntH6). Reactions were monitored on either a Synergy HT plate reader (BioTek Instruments, Inc., Winooski, Vt.) at 25° C. (for reactions monitored at 300 nm or higher) or in a Biomate 5 Spectrophotometer (Thermo Scientific, Waltham, Mass.) for reactions at 263 nm. […]
# (§2) For kinetic characterization, his-tagged proteins of AtoB, FadA, FadB, caHBD, egTER were purified from the B-PER supernatant fractions using Talon Metal Affinity Resin (Clontech Laboratories, Inc., Mountain View, Calif.) using gravity purification. […] Enzyme concentration was established by measuring the absorbance at […] and extinction coefficients predicted for each enzyme by the ProtParam program (web.expasy.org/protparam/).
# (§3) For kinetic characterization, an appropriate amount of enzyme was established by checking linear range near predicted KM values. Then, the rates were measured for a range of substrates in order to establish kcat and KM. […]
# [2] = crotonase activity (loss of crotonoyl-CoA at 263 nm); conditions: substrate Crotonyl-CoA; supernatant fraction; expressed from pUCBB-ntH6
# Description: as §1, §2, §3
# [3] = β-hydroxybutyryl-CoA dehydrogenase assay (NADH dependent reduction of acetoacetyl-CoA)
# Description: as §1, §2, §3
# [4] = forward thiolase assay (biosynthetic direction), coupled with caHBD; conditions: substrate Acetyl-CoA; supernatant fraction; AtoB expressed from pCA24N, FadA from pUCBB-ntH6
# Description: as §1, §2, §3
# [5] = thiolase activity in the reverse direction (loss of acetoacetyl-CoA at 303 nm); conditions: substrate Acetoacetyl-CoA; supernatant fraction; AtoB expressed from pCA24N, FadA from pUCBB-ntH6
# Description: as §1, §2, §3
molecule,measurement,setting,value
B1,Specific Activity,[1],5.4 ± 0.6^d μmol/mg/min
B2,Specific Activity,[2],0.051 ± 0.004^c μmol/mg/min
same,Specific Activity,"[3]; substrate Acetoacetyl-CoA, supernatant fraction, expressed from pUCBB-ntH6",0.185 ± 0.001^c μmol/mg/min
B3,Specific Activity,[4],Not detected^c
same,Specific Activity,[5],0.013 ± 0.002^c μmol/mg/min
B4,specific activity toward the reduction of acetoacetyl-CoA,"[3]; purified enzyme, data not shown",moderate
